Assay results taken from patent publication US20180282412A1.

Key:
[1] = molecular target: PD-1-Fc fusion protein (extracellular region of human PD-1 fused to human Fc) (human); assay: ELISA on coated PD-1-Fc, HRP anti-human kappa
[2] = molecular target: PD-1-Fc fusion protein (extracellular region of human PD-1 fused to human Fc) (human); assay: SPR (Biacore), PD-1-Fc immobilized, antibody as analyte

Chain of PD-1-Fc fusion protein (extracellular region of human PD-1 fused to human Fc) (human) (chain, as listed by the source limits assumed): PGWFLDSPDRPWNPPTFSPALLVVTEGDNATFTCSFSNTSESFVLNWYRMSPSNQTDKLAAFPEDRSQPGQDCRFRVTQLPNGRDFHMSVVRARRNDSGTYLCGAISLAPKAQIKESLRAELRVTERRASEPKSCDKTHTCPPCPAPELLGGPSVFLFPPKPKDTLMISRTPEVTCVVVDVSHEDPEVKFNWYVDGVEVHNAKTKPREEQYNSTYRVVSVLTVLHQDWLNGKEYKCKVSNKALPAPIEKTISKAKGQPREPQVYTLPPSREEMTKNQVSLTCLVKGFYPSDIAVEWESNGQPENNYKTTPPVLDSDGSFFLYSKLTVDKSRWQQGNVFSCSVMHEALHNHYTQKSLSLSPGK

Nivolumab (antibody) showed an EC50 (read off the curve) [1] of 0.04 µg/mL and a Kd [2] of 0.0212 nM.
